Source: US20080025968A1 (YEDA RESEARCH AND DEVELOPMENT, published 2008)

Columns and labels:
NF-κB2/p100, endogenous = molecular target: T1, NF-κB2/p100, endogenous (human, UniProt Q00653 1-900); assay: western blot of the p55 TNF receptor complex from Ramos cells (FIG. 6a)
T1 construct: mature
T1 sequence (looked up): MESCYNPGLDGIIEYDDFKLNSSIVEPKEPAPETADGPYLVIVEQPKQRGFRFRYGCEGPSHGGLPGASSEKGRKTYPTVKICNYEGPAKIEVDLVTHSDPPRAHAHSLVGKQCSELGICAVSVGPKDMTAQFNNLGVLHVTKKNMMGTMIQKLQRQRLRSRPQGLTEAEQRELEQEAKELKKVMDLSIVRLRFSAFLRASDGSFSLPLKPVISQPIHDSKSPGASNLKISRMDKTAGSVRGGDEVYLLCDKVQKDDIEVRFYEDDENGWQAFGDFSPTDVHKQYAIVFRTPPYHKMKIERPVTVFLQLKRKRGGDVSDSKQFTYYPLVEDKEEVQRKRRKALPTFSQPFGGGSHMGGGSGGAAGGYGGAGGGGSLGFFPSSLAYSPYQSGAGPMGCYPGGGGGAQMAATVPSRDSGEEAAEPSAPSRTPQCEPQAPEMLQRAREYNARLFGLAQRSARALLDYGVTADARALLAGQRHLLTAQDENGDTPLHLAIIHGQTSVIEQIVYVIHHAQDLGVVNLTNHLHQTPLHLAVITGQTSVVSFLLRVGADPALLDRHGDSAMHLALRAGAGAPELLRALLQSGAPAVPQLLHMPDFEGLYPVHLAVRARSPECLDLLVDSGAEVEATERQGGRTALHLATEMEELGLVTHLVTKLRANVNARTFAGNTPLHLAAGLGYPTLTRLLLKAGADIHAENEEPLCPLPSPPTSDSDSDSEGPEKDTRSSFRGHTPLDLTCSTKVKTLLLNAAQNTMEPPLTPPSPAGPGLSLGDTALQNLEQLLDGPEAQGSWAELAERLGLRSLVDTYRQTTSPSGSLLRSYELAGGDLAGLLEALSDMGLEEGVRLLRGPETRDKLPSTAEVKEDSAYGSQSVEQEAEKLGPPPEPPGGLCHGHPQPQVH
Experimental: (§1) Transfections, immunoblotting and immunoprecipitations were performed as described in Example 2 and Example 3 of the Examples section. For immunoprecipitation of the CD70/CD27 ligand-receptor complexes from resting PBMC and Ramos cells, cell lysates were prepared as described for the kinase tests aforementioned and incubated for 4 hours at 4° C. with 25 μl of 50% M2-FLAG agarose beads per ml of lysate. The TNF-receptor complex was precipitated as described (Zhang et al., 2000). The signalosome from cell lysates was immunoprecipitated using a 1:1 mixture of two different antibodies against IKK1 (M-280 and H-744, Santa Cruz). Immunoprecipitation was allowed to continue for 2 hours at 4° C., using 10 μg of anti-IKKα antibodies adsorbed to 25 μl of 50% protein-A-Sepharose beads per ml of lysate.

p50, endogenous = molecular target: T2, p50, endogenous (human, UniProt P19838 1-433); assay: as above
T2 construct: also called NF-κB1 processed form
T2 sequence (looked up): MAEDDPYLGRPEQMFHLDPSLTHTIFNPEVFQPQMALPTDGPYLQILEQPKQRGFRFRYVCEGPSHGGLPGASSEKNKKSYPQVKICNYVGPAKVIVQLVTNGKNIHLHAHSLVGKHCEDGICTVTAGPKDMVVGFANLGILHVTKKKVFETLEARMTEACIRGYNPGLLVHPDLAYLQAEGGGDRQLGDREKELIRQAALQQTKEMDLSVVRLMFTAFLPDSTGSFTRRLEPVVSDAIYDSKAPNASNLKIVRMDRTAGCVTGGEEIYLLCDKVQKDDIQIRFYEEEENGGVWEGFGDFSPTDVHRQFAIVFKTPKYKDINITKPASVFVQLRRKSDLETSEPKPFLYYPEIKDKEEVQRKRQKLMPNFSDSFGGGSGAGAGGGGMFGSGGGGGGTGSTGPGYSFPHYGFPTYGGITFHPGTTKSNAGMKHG
Experimental: as §1

p65, endogenous = molecular target: T3, p65, endogenous (human, UniProt Q04206 1-551); assay: as above
T3 construct: mature; also called RelA
Experimental: as §1

[1] = molecular target: T4, myc-NIK (NIK N-terminally fused to the myc tag) (human, UniProt Q99558 1-947); assay: western blot of the p55 TNF receptor complex from NIK-deficient Ramos cells replenished with NIK (FIG. 6d)
T4 construct: Expressed in HEK293T cells for co-immunoprecipitation, the reporter test and the kinase test; also called myc-tagged NIK; wild type NIK
Experimental: as §1
In NIK− cells, recruitment to the p55 TNF receptor occurred just as effectively as in the wild type cells (FIG. 6c, right panel). In contrast, recruitment of the signalosome components to CD27 was completely abolished (FIGS. 6c, d, left panels). Introduction of the wild type NIK, but not of “kinase-dead” NIK, to the NIK− cells reintated the recruitment in response to CD70 (FIG. 6d, middle and right panels). […] This recruitment could be observed both in cells expressing the wild type enzyme and in those that expressed its “[…]” mutant (FIG. 6d). […]

IKK1, endogenous = molecular target: T5, IKK1, endogenous (human, UniProt O15111 1-745); assay: western blot of the p55 TNF receptor complex from Ramos cells after TNF (FIG. 5c)
T5 construct: mature; also called IKKα
T5 sequence (looked up): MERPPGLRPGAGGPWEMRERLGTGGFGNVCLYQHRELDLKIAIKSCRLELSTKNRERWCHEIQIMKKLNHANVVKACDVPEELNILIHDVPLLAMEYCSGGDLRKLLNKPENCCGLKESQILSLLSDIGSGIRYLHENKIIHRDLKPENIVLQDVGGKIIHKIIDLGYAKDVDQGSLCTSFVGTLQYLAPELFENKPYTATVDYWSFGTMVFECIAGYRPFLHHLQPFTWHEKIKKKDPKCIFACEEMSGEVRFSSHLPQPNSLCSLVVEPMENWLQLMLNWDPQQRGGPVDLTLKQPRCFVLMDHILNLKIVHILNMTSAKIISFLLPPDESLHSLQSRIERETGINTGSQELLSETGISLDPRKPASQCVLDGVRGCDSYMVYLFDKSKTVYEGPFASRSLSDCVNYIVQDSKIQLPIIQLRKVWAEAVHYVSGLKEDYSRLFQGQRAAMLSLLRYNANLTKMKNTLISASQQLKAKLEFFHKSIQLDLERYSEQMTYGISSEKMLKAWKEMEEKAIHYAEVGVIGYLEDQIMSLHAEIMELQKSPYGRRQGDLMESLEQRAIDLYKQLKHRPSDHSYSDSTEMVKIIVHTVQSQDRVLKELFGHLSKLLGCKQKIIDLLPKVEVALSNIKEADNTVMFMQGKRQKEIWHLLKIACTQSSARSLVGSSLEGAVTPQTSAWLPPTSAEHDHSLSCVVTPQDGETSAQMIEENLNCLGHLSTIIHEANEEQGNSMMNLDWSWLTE

T3 sequence (Q04206 whole entry): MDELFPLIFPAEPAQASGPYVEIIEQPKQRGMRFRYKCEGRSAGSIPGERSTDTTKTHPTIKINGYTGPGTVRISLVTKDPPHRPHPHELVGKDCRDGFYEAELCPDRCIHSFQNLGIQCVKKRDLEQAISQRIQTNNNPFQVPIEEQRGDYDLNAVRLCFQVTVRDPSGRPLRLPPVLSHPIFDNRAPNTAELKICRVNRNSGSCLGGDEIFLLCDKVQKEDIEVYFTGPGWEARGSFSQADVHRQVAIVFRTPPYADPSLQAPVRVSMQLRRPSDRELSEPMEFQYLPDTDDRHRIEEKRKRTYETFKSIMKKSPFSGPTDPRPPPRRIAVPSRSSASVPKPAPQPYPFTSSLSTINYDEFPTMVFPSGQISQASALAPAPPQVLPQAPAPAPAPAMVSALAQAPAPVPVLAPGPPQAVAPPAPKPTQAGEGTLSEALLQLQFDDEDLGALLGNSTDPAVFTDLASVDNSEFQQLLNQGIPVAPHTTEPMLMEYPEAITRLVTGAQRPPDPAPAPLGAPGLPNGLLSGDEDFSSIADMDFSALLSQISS
T4 sequence (Q99558 other isoform, or with tags, fused parts or gaps): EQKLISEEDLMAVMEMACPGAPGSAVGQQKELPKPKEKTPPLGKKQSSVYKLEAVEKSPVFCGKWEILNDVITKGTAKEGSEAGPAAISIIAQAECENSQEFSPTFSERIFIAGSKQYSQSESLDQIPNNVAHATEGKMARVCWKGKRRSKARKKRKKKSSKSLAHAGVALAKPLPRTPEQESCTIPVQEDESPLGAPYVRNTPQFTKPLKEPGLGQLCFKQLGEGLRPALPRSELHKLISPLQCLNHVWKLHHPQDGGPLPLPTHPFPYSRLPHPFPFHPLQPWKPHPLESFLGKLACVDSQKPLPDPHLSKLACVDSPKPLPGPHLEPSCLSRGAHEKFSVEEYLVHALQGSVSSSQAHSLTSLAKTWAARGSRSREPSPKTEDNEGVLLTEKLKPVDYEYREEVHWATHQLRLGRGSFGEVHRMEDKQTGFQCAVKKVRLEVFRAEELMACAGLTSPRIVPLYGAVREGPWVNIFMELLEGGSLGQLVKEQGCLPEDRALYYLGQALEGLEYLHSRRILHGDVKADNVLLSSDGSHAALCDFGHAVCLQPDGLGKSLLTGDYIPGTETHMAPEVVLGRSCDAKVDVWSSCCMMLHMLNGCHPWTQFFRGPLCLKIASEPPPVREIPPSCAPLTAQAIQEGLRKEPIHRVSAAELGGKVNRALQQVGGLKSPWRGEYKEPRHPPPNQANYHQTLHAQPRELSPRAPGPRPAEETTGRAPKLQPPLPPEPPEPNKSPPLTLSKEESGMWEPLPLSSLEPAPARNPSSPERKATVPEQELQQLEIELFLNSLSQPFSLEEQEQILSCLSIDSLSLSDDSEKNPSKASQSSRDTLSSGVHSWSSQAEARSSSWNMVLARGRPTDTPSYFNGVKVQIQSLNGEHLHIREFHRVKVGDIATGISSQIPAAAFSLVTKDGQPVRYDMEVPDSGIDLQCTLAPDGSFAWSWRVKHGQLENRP

B1: p55 TNF receptor, endogenous in Ramos cells (receptor, human, UniProt P19438 30-455, looked up)
chain: LVPHLGDREKRDSVCPQGKYIHPQNNSICCTKCHKGTYLYNDCPGPGQDTDCRECESGSFTASENHLRHCLSCSKCRKEMGQVEISSCTVDRDTVCGCRKNQYRHYWSENLFQCFNCSLCLNGTVHLSCQEKQNTVCTCHAGFFLRENECVSCSNCKKSLECTKLCLPQIENVKGTEDSGTTVLLPLVIFFGLCLLSLLFIGLMYRYQRWKSKLYSIVCGKSTPEKEGELEGTTTKPLAPNPSFSPTPGFTPTLGFSPVPSSTFTSSSTYTPGDCPNFAAPRREVAPPYQGADPILATALASDPIPNPLQKWEDSAHKPQSLDTDDPATLYAVVENVPPLRWKEFVRRLGLSDHEIDRLELQNGRCLREAQYSMLATWRRRTPRREATLELLGRVLRDMDLLGCLEDIEEALCGPAALPPAPSLLR
notes: whole, on cells; TNF-receptor complex precipitated as described by Zhang et al., 2000
B1: binds (NF-κB2/p100, endogenous); binds (p50, endogenous); binds (p65, endogenous). B1: no binding [1]; binds (IKK1, endogenous).
